Experimental data taken from patent US11214614B2, “LTBP complex-specific inhibitors of TGFβ and uses thereof” (Scholar Rock, Inc., priority 2019, dated 2022).
Changes are numbered by the printed parent chain.

B1: SR-AB42: cycle 3 antibody, lineage SR-AB23; CDRs SEQ ID NO: 166-171; HCVR SEQ ID NO: 318, LCVR SEQ ID NO: 319 (antibody, V domains shown)
VH: QVQLVESGGGVVQPGRSLRLSCAASGFTFRSYVMHWVRQAPGKGLEWVAVISHEGSLKYYADSVKGRFTISRDNSKNTLYLQMNSLRAEDTAVYYCARPRIAARRGGFGYWGQGTLVTVSS
VL: NFMLTQPHSVSESPGKTVTISCTRSSGNIDNNYVQWYQQRPGSSPTTVIYEDNQRPSGVPDRFSGSIDSSSNSASLTISGLKTEDEADYYCQSYDYDTQGVVFGGGTKLTVL
B2: SR-AB22: second-round (CDR-H3 mutagenesis) antibody, lineage SR-AB14; CDRs SEQ ID NO: 108-113 (antibody, V domains shown)
VH: B1 VH with R98V
VL: B1 VL with Y96S, T98N
B3: SR-AB23: second-round (CDR-H3 mutagenesis) antibody, lineage SR-AB14; CDRs SEQ ID NO: 116-121 (antibody, V domains shown)
VH: B1 VH
VL: B1 VL with Y96S, T98N

Tests used:
[1] = system: male C57BL/6J mice on CDHFD (liver fibrosis); assay: Choline-deficient high fat diet (CDHFD) model of mouse NASH, liver hydroxyproline content; type: in vivo; conditions: 15 mg/kg twice a week i.p., weeks 4 through 12 of CDHFD
Description: The Choline deficient high fat diet (CDHFD) is an established diet-induced model of Non-Alcoholic steatohepatitis (NASH). In this model, male C57BL/6J mice are fed a choline deficient, 0.10% Methionine, high fat diet for 12 weeks. Three to six weeks after the start of the CDHFD, activation of pro-fibrotic processes can be detected through increased expression of α-smooth muscle actin (α-SMA) protein, a marker for activation of hepatic stellate cells, and elevated tissue hydroxyproline content reflecting increased collagen synthesis and deposition (Matsumoto et. al, Int J Exp Pathol. 2013 April; 94(2):93-103).
LTBP complex-specific antibodies were tested for their ability to inhibit and/or reduce the extent of liver fibrosis in mice in the CDHFD model as follows. An outline of the study is shown below in Table 21.
Animals in the test cohorts were on the CDHFD for the duration of the study. A separate cohort of mice (Group 1) were administered a regular chow diet as a study control. Antibodies SR-AB42 and SR-AB31 were administered to mice by intraperitoneal (i.p.) injection beginning at 4 weeks post start of the CDHFD. Animals were dosed at antibody test concentrations 15 mg/kg twice a week (i.e., 30 mg/kg/week) for a test duration of 8 weeks (i.e., weeks 4 through 12). […] Endpoint readout was hydroxyproline content. […]

murine LTBP1-proTGFβ1 = target: T1, murine LTBP1-proTGFβ1 (Mus musculus, UniProt P04202+Q8CG19); assay: Murine LTBP overexpression caga assay: LN229 cells co-transfected with mouse LTBP1 and mouse proTGFβ1, CAGA12 reporter cells; type: cell-based; conditions: overexpressed murine LTBP1-proTGFβ1
T1 construct: expressed in transfected cells; host or cells: LN229
T1 sequence (P04202 30-390): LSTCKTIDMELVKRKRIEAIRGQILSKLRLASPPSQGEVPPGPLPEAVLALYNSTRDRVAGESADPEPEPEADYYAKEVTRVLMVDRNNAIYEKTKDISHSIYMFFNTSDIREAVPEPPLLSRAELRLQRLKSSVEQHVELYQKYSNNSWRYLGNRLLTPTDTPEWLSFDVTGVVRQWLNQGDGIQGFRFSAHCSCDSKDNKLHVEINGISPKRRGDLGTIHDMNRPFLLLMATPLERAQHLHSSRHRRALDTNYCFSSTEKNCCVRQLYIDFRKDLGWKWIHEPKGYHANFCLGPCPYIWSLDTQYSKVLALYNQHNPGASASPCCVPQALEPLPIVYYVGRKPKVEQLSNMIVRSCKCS
T1 sequence (Q8CG19 339-1712 limits assumed): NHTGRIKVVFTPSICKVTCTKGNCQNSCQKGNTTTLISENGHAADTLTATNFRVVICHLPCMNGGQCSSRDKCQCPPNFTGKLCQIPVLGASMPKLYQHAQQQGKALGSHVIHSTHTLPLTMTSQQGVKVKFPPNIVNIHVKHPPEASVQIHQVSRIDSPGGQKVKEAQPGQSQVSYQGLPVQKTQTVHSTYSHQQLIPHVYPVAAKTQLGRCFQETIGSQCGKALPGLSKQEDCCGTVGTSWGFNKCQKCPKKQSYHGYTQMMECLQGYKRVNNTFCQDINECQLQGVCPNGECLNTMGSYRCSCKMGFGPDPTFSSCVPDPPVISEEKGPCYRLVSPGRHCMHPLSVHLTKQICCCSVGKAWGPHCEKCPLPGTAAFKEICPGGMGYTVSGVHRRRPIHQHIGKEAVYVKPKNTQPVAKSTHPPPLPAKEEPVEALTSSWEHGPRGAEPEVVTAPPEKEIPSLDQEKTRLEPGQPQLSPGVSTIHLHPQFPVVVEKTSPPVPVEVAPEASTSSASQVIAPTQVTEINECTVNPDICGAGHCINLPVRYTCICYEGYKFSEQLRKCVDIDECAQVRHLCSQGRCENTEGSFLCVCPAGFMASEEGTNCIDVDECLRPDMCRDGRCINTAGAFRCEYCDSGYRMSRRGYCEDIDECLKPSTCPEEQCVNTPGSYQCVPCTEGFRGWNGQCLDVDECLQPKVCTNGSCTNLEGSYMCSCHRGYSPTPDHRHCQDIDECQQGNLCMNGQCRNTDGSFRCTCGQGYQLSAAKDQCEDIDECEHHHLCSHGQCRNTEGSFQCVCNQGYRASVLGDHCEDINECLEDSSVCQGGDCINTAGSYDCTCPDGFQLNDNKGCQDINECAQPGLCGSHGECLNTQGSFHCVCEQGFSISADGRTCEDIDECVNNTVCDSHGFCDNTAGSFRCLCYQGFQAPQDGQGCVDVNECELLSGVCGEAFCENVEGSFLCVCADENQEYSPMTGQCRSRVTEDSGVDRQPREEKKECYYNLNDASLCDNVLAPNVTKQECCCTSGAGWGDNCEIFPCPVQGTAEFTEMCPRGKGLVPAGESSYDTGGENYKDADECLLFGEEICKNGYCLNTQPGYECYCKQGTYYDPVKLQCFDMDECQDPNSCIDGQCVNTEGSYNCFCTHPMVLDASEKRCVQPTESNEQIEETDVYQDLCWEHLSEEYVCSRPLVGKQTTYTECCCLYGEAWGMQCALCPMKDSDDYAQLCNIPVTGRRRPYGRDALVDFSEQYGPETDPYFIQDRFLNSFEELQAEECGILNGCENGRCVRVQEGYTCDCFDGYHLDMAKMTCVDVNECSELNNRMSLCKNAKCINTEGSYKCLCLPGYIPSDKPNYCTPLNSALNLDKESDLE
Procedure: Additionally, the ability of SR-AB2 to inhibit LTBP1/3-proTGFβ1 in a cell-based assay was also conducted. As essentially described above in Example 2, LN229 cells were seeded on fibronectin pre-coated assay wells and directly transfected with the indicated DNA molecules.
LTBP complex-specific antibodies from the first round of affinity maturation/optimization (i.e., SR-AB14, SR-AB16, SR-AB17, SR-AB18, SR-AB19) were selected for a second round of affinity maturation/optimization (i.e., CDR-H3 mutagenesis as described herein) and particular progeny antibodies (SR-AB20, SR-AB21, SR-AB22, SR-AB23, SR-AB24, SR-AB25, SR-AB26, SR-AB27, SR-AB28, and SR-AB29) were assessed for their ability to inhibit TGFβ activity using LN229 cells. For the assays depicted in FIGS. 13A, 13B, 14A, and 14B the following protocol was used, which is a modified version of Assay II in Example 2. […]
On day 0, prior to cell seeding, assay plates were coated with Fibronectin (LTBP over expression assay only). […] The cell pellet was resuspended in D10 media and viable cells per ml counted. […]

huLRRC33 proTGFβ1 = huLRRC33 proTGFβ1 (Homo sapiens, UniProt P01137); assay: Octet binding of immobilized cycle 2 antibodies; parameters: modified human kappa light chain signal peptide (N); Histidine tag (C); conditions: antibody immobilized (loading sample)
Chain of huLRRC33 proTGFβ1 (P01137 30-390): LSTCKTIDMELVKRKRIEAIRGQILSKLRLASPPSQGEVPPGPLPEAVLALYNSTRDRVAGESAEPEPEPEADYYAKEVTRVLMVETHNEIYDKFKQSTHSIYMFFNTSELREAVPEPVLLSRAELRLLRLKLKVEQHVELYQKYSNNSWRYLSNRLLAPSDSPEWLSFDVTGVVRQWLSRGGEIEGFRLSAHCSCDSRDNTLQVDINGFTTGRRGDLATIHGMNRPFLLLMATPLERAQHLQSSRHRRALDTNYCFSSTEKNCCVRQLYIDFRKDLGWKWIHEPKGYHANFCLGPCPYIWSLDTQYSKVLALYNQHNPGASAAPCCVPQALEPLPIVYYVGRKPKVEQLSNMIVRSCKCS
Chain of huLRRC33 proTGFβ1 (Q86YC3 with tags, fused parts or gaps partner limits assumed): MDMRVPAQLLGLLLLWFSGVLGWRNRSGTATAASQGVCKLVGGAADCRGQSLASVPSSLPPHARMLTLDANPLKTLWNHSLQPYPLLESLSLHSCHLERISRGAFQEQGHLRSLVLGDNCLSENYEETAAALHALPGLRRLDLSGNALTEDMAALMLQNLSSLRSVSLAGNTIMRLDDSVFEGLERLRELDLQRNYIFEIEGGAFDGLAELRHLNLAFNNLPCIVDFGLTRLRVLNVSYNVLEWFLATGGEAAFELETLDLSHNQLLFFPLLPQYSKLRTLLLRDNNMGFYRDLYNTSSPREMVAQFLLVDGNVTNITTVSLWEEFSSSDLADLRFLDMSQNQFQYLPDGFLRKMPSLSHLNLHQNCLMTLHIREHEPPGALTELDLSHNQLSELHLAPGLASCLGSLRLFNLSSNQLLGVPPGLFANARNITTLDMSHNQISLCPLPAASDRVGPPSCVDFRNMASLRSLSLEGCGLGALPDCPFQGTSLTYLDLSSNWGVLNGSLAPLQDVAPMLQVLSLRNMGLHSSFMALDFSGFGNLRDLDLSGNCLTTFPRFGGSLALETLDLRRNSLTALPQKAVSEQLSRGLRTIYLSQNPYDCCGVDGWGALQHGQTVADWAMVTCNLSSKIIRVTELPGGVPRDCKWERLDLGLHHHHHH
Description: A modified proTGFβ1 complex (proTGFβ1 C4S) in which the cysteine residue at position 4 of the pro-domain has been substituted with a serine residue (described in WO 2014/182676) was used to assess antibody binding to C4S antigen by Octet. Cycle 2 antibodies were immobilized and tested against 3 antigens. As shown in the Tables below, robust antibody binding to LTBP-1 proTGFβ1 antigen (Table 23) and proTGFβ1C4S antigen was observed (Table 24), while binding to LRRC33 proTGFβ1 antigen was not observed (Table 25).

Molecule	Hydroxyproline (HYP) in liver tissue [1]	Inhibition of TGFβ1 activation (TGFβ activity, luciferase) (murine LTBP1-proTGFβ1)	Response, binding to human LRRC33 proTGFb1 (huLRRC33 proTGFβ1) [nm]
B1	inhibited the increase in HYP		
B2		improved potency	0.1329
B3		improved potency	0.0233
